Test results from patent US20250179210A1, “ANTI-CEACAM5 ANTIBODIES AND CONJUGATES AND USES THEREOF” (Merck Patent GmbH, priority 2022, published 2025).

B1: Fab of mAb1: Fab format of antibody mAb1 (antibody, V domains shown)
VH: EVQLQESGPGLVKPSQTLSLTCTVSDGSVSRGGYYLTWIRQHPGKGLEWIGYIYYSGSTYFNPSLRSRVTMSVDTSKNQFSLKLSSVTAADTAVYYCARGIAVAPFDYWGQGTLVTVSS
VL: EIVLTQSPATLSVSPGERATLSCRTSQSVRSNLAWYQQKPGQAPRLLIYAASTRATGIPARFSGSGSGTEFTLTISSLQSEDFAVYYCQQYTNWPFTFGPGTKVDIK
B2: rb8G4 (antibody)
heavy: EVQLQESGPGLVKPSQTLSLTCTVSDGSVSRGGYYLTWIRQHPGKGLEWIGYIYYSGSTYFNPSLRSRVTMSVDTSKNQFSLKLSSVTAADTAVYYCARGIAVAPFDYWGQGTLVTVSSQPKAPSVFPLAPCCGDTPSSTVTLGCLVKGYLPEPVTVTWNSGTLTNGVRTFPSVRQSSGLYSLSSVVSVTSSSQPVTCNVAHPATNTKVDKTVAPSTCSKPTCPPPELLGGPSVFIFPPKPKDTLMISRTPEVTCVVVDVSEDDPEVQFTWYINNEQVRTARPPLREQQFNSTIRVVSTLPIAHEDWLRGKEFKCKVHNKALPAPIEKTISKARGQPLEPKVYTMGPPREELSSRSVSLTCMINGFYPSDISVEWEKNGKAEDNYKTTPAVLDSDGSYFLYSKLSVPTSEWQRGDVFTCSVMHEALHNHYTQKSISRSPGK
light: EIVLTQSPATLSVSPGERATLSCRTSQSVRSNLAWYQQKPGQAPRLLIYAASTRATGIPARFSGSGSGTEFTLTISSLQSEDFAVYYCQQYTNWPFTFGPGTKVDIKRDPVAPSVLLFPPSKEELTTGTATIVCVANKFYPSDITVTWKVDGTTQQSGIENSKTPQSPEDNTYSLSSTLSLTSAQYNSHSVYTCEVVQGSASPIVQSFNRGDC

How the values were obtained:
[1] = test system: other human CEACAM family members (huCEACAM6, huCEACAM1, huCEACAM3, huCEACAM7, huCEACAM8, huPSG1); assay: Selectivity ELISA, different CEACAM proteins (Fab); assay type: binding; details: even when using 1000 nM Fab
Excerpt: (§1) Selectivity determination for Fab of mAb1 to human CEACAM5 and other human CEACAM family members was done in ELISA assay. Proteins were coated on 96-well assay plates: huCEACAM5-His6 (R&D Systems #4128-CM), huCEACAM6-His6 (3934-CM R&D Systems and recombinant protein obtained from Syngene), huCEACAM1-His6 (2244-CM R&D Systems), huCEACAM3-His6 (C449 Novoprotein), huCEACAM7-His6 (C926 Novoprotein), huCEACAM8-His6 (C583 Novoprotein), huPSG1-His6 (CC66 Novoprotein), each protein was coating the plate at 12 nM concentration.

[2] = target: cynomolgus_monkey-CEACAM5; assay: Binding affinity on Octet Red (Fab format); details: biotinylated Macaca fascicularis CEACAM5_ECD-His captured, KD=kd/ka
Excerpt: • To determine the binding affinity of soluble antibody analyte to captured target protein CEACAM5 (human or cynomolgus monkey Macaca fascicularis).

BSA = BSA (Bos taurus, UniProt P02769); assay: Selectivity ELISA, unrelated protein (Fab); assay type: binding; details: all concentrations tested
Excerpt: as §1

[3] = target: T1, CEACAM5 in cancer cell line lysates (Homo sapiens, UniProt P06731); assay: Western blot on cancer cell line lysates; assay type: binding; details: CEACAM5-positive and -negative cell line lysates
T1 construct: endogenous in cells; host or cells: CEACAM5-positive and -negative cancer cell lines (RIPA lysates)
T1 sequence (P06731 35-685): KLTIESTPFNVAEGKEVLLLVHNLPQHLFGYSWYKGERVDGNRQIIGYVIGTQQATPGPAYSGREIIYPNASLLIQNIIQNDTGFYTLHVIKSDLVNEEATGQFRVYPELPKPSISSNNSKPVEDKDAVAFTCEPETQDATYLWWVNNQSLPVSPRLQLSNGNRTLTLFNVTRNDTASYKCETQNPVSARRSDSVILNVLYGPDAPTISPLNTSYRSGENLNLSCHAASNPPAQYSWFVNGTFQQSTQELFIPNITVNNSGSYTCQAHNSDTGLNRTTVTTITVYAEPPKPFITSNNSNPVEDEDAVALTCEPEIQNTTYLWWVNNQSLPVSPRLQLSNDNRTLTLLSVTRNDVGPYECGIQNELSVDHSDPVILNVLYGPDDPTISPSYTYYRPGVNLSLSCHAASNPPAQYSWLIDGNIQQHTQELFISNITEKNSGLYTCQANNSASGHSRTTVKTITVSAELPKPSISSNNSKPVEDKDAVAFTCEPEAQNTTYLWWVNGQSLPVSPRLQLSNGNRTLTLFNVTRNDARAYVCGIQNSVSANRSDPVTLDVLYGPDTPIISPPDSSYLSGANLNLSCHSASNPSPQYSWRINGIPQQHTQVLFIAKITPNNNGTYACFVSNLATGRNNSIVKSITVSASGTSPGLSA
Protocol: Method used: Western blots were performed according to standard protocols (Sambrook, J. & Russell, D. W., 2001. Molecular Cloning: A Laboratory Manual, Volume 1, CSHL Press). For SDS-PAGE followed by membrane wet blotting, 15 μg total protein of RIPA cell lysates quantified by BCA kit (Thermo Scientific, #23227) were loaded per lane. Criterion XT 4-12% gels (Bio-Rad, #3450125) using MOPS running buffer (Bio-Rad #1610788) were used in a Criterion electrophoresis cell (Bio-Rad, #1656001). Transfer of proteins was confirmed by Ponceau staining. Membranes were washed before and in-between staining with 0.5 μg/mL to 1 μg/mL primary (mAb1 or rb8G4) and secondary antibodies (anti-human IgG, Jackson ImmunoResearch #109-035-098 or anti-rabbit IgG, CellSignaling #7074) was conducted. Stained membranes were visualized by ECL detection reagent using a Fusion FX imaging system (Vilber).

MDA-MB-468 = assay: Flow cytometry binding to cell lines; design: species or system human; details: 10 μg/mL primary antibody
Protocol: (§2) Method used: 5E5 to 1E6 cells were used for flow cytometry analyses using a BD FACSCanto II (BD Biosciences) in 5 mL polystyrene tubes. Staining with 10 μg/mL primary antibodies (mAb1, rb8G4, mouse monoclonal Agilent Dako #M7072 clone #IL7) and respective fluorescently labeled secondary antibodies (donkey anti-human IgG Jackson-Dianova #709-116-149; donkey anti-mouse IgG Jackson ImmunoResearch #715-116-150, donkey anti-rabbit IgG Jackson-Dianova #711-116-152) were conducted in 50 μL 1% PBS/BSA for 20 to 30 min at 4° C. Between and after staining steps, cells were washed thrice with 1% PBS/BSA and resuspended in 500 μL 1% PBS/BSA (including 0.2 μg/mL DAPI for live cell gating) for flow cytometry analyses. For data evaluation, FlowJo software (BD Biosciences) was used.

A549 = assay: Flow cytometry binding to cell lines; design: species or system human; details: 10 μg/mL primary antibody
Protocol: as §2

MKN-45 = assay: Flow cytometry binding to cell lines; design: species or system human; details: 10 μg/mL primary antibody
Protocol: as §2

NCI-H441 = assay: Flow cytometry binding to cell lines; design: species or system human; details: 10 μg/mL primary antibody
Protocol: as §2

[4] = target: T2, CEACAM-5 in FFPE cancer cell lines and human tumor tissues (Homo sapiens, UniProt P06731); assay: Immunohistochemistry on FFPE cell lines and human tissues
T2 construct: formaldehyde fixed paraffin embedded (FFPE) cancer cell line microarrays (CMAs) and human tumor tissues; from tissue; host or cells: FFPE cancer cell line microarrays and human tumor tissues
T2 sequence (P06731 35-676): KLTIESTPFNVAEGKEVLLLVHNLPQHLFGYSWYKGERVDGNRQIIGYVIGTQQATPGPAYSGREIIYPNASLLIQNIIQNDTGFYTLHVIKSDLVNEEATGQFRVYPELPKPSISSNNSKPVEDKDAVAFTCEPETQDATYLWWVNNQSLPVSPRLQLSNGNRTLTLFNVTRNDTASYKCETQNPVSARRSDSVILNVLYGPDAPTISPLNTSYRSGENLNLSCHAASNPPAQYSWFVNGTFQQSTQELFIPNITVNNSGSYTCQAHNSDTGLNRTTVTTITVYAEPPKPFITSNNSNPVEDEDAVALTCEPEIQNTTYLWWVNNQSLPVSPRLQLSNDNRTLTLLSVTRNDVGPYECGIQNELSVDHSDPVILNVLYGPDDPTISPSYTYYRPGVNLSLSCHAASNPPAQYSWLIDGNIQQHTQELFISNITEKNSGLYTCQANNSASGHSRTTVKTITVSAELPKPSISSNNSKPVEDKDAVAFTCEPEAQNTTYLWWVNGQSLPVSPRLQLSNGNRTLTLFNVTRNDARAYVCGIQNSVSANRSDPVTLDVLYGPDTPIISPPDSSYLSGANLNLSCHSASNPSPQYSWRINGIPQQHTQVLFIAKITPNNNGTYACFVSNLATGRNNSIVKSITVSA
Protocol: For the IHC staining with the anti-CEACAM-5 antibody rb8G4, sections of 4 μm from formaldehyde fixed paraffin embedded (FFPE) cancer cell line microarrays (CMAs) and human tumor tissues were mounted on charged slides (SuperFrost Ultra Plus, Thermo Fisher Scientific or TOMO, Matsunami). The staining procedure was performed using a Discovery XT (Roche Diagnostics) staining platform. Following deparaffinization, the sections were heated for epitope retrieval in Tris-EDTA buffer pH 8 (CC1, Roche Diagnostics). The sections were incubated with the primary monoclonal antibody rb8G4 diluted to 0.5 or 0.7 μg/ml in phosphate-buffered saline (PBS) or antibody diluent buffer (DCS). The clone DA1E (rabbit monoclonal IgG, NEB) served as isotype control antibody. The primary antibodies were followed by the HQ anti-rabbit IgG detection kit (Roche Diagnostics). […]
CMAs and the TMA with human organ tissue were stained and scanned with the NanoZoomer (Hamamatsu) with a resolution of 0.46 μm/pixel. […] The scans of the CMAs were analyzed with the image analysis software HALO (Indica Labs, USA). For the determination of the amount of antigen present, positive brown stained area was calculated as percent area of the viable tissue area. Staining (arbitrary units) is calculated as […]

Chain of cynomolgus_monkey-CEACAM5 (as listed by the source): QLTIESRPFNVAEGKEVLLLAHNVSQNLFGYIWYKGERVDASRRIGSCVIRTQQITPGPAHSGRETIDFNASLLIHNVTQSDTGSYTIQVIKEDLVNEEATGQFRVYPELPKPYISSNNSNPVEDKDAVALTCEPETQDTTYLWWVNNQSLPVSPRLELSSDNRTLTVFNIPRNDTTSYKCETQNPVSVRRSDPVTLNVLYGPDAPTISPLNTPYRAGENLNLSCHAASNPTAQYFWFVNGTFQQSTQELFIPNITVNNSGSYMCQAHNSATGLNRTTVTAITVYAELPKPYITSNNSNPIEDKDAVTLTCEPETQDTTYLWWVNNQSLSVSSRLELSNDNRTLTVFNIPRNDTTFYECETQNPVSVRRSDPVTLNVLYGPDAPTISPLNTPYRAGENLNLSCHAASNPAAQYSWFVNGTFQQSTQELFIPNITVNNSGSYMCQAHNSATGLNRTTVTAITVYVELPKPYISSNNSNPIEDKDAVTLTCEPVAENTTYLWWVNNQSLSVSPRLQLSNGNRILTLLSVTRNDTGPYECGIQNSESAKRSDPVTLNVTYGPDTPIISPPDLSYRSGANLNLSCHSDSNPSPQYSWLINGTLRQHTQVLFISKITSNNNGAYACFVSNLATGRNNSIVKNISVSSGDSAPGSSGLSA
Chain of BSA (P02769 25-607): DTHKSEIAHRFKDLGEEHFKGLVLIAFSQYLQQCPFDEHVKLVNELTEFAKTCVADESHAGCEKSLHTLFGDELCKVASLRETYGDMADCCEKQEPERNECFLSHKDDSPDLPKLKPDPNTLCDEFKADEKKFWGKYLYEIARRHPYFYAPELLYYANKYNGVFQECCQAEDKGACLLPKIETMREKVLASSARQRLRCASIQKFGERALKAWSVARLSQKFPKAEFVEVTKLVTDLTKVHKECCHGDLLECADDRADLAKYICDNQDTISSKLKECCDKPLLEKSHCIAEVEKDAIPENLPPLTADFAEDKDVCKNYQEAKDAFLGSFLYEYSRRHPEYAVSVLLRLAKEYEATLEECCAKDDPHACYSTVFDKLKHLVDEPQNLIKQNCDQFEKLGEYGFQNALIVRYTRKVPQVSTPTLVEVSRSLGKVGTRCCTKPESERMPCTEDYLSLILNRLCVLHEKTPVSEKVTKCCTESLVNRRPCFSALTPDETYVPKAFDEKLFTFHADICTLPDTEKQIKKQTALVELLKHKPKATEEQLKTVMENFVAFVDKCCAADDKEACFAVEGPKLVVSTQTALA

Molecule | Binding to the other human CEACAM family members [1] | Kd [2] | Binding to unrelated protein (BSA) (BSA) | CEACAM5 detection in Western blot [3] | Quotient of MFI of antibody divided by MFI of secondary antibody only control (MDA-MB-468) | Quotient of MFI of antibody divided by MFI of secondary antibody only control (A549) | Quotient of MFI of antibody divided by MFI of secondary antibody only control (MKN-45) | Quotient of MFI of antibody divided by MFI of secondary antibody only control (NCI-H441) | Pearson correlation coefficient r of IHC staining signal with CEACAM5 mRNA expression ([4]; 104 cancer cell lines, CCLE dataset) | IHC staining of human tumor tissue ([4]; colorectal, gastric, esophageal and non-small cell lung cancer)
B1 | did not bind | 0.0141 ± 0.00253 µM | did not bind |  |  |  |  |  |  | 
B2 |  |  |  | specific to CEACAM5-positive cell lines | 1.0 | 1.1 | 36.2 | 3.2 | 0.88 | stained positive
